# Test results published in US20150158921A1.
# “And” between values parts separate entries of the source, which are not always exact repeats. Equal values may be shown once.
# Assays:
# Assay in all cases: cell-based or functional assay
# [1] = target: rat NMDA receptor NR1-2b/NR2A (rat) (UniProt P35439)
# [2] = target: human α6/α3β2β3 nAChR (human) (UniProt P17787)
# rat α7 nAChR (rat) = rat α7 nAChR (rat) (UniProt Q05941)
# [3] = target: rat NMDA receptor NR1-2b/NR2D (rat) (UniProt P35439)
# rat α6/α3β4 nAChR (rat) = rat α6/α3β4 nAChR (rat) (UniProt P12392)
# [4] = target: rat NMDA receptor NR1-2b/NR2C (rat) (UniProt P35439)
# human α7 nAChR (human) = human α7 nAChR (human) (UniProt P36544)
# rat α4β2 nAChR (rat) = rat α4β2 nAChR (rat) (UniProt P09483)
# [5] = target: rat NMDA receptor NR1-2b/NR2B (rat) (UniProt P35439)
# Chain of rat α6/α3β4 nAChR (rat) (P12392 21-495): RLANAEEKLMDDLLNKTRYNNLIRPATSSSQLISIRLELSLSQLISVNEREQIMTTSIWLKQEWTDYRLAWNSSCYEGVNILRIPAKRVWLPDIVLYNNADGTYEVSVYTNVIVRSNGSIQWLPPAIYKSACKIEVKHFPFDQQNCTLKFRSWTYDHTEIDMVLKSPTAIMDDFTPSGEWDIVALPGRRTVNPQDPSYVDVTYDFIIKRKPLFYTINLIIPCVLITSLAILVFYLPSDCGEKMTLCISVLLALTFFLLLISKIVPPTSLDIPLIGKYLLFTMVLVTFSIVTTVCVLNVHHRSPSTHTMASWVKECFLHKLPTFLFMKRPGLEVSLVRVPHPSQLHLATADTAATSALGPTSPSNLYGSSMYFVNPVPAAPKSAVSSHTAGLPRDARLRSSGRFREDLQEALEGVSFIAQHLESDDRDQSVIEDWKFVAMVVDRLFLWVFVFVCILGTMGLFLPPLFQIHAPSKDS
# Chain of human α7 nAChR (human) (P36544 23-502): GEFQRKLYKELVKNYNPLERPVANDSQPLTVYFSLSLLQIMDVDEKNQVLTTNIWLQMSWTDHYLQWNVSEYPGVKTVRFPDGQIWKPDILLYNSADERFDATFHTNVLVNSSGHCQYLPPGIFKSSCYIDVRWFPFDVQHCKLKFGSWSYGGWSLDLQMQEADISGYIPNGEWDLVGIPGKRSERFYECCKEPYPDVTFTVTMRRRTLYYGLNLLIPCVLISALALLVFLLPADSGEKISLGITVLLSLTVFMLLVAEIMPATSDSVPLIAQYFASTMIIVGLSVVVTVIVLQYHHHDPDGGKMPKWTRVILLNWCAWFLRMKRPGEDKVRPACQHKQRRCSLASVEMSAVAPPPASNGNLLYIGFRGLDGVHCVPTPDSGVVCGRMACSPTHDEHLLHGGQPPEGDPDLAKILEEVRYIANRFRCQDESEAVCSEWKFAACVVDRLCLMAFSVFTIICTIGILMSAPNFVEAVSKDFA
# Chain of rat α7 nAChR (rat) (Q05941 23-502): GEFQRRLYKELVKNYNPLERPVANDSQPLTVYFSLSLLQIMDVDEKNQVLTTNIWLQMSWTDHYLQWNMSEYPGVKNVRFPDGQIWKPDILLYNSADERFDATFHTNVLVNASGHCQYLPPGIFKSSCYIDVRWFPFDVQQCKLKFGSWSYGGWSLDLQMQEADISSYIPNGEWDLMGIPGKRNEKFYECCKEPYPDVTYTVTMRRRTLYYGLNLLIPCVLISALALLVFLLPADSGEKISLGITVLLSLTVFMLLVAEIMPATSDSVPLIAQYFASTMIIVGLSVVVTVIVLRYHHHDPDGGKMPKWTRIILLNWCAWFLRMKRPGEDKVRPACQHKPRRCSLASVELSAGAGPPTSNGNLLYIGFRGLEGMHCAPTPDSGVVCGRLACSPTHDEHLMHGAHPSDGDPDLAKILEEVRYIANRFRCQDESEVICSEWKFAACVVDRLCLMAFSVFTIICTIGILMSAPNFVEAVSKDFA
# Chain of human α6/α3β2β3 nAChR (human) (P17787 26-502, chain 1 of 2): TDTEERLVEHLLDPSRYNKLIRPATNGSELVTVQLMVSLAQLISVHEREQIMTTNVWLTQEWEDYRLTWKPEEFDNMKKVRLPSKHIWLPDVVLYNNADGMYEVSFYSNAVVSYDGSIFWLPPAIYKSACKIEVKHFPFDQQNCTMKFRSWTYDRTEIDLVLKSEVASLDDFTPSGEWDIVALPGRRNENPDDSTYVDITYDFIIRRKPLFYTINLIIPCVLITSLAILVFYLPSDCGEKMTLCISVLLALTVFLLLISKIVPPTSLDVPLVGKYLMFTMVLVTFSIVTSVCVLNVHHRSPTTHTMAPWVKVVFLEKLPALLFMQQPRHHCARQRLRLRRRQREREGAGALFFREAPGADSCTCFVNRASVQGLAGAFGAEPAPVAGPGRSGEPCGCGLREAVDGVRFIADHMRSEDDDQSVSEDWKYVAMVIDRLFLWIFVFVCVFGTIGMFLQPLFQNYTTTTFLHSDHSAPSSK
# Chain of human α6/α3β2β3 nAChR (human) (Q05901 22-458, chain 2 of 2, further chain): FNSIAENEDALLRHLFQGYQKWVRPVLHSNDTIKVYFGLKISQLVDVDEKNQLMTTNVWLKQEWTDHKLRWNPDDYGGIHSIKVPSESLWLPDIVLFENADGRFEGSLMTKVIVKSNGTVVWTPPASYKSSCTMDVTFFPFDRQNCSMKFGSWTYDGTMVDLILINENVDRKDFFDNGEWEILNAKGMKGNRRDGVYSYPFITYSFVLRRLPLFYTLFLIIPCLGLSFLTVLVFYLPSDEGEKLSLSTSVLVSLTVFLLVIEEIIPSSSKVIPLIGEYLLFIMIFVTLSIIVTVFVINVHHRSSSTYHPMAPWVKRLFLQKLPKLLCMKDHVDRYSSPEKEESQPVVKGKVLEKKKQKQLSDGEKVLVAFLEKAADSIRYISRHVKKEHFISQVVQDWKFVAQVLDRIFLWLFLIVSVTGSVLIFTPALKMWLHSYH
# Chain of rat α4β2 nAChR (rat) (P09483 31-630, chain 1 of 2): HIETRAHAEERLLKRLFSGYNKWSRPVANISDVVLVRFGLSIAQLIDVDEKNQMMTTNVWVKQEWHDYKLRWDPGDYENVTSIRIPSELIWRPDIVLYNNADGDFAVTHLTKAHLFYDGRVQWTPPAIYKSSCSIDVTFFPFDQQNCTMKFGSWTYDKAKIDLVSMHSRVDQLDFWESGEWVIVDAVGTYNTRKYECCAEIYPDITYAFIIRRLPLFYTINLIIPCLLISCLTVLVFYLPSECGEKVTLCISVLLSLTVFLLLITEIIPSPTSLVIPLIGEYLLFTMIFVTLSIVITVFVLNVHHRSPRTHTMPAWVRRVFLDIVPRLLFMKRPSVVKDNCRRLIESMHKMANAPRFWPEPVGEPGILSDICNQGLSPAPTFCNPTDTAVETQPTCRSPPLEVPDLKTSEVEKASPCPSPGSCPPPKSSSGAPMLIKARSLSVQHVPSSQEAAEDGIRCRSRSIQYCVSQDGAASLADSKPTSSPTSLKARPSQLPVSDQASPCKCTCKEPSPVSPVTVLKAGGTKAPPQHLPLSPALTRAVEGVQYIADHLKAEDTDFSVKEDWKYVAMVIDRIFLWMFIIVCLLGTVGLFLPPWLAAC
# Chain of rat α4β2 nAChR (rat) (P12390 25-500, chain 2 of 2, further chain): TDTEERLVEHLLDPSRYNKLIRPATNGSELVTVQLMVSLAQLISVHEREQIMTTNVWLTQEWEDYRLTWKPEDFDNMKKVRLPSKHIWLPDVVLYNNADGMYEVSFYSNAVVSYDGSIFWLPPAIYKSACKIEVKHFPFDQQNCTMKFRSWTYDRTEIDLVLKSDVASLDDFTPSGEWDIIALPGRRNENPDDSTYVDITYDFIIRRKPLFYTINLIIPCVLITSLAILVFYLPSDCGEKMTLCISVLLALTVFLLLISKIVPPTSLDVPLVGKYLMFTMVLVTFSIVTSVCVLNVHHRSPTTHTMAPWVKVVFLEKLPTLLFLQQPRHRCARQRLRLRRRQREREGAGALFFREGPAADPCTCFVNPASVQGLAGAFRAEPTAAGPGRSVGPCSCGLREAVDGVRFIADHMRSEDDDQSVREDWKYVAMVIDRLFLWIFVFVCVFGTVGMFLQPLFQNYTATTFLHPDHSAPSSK
Substance,"Half-blocking dose IC50, NMDA receptor current, oocyte voltage clamp [1]","Half-blocking dose IC50, ACh-gated current, oocyte voltage clamp [2]","Half-blocking dose IC50, ACh-gated current, oocyte voltage clamp (rat α7 nAChR (rat))","Half-blocking dose IC50, NMDA receptor current, oocyte voltage clamp [3]","Half-blocking dose IC50, ACh-gated current, oocyte voltage clamp (rat α6/α3β4 nAChR (rat))","Half-blocking dose IC50, NMDA receptor current, oocyte voltage clamp [4]","Half-blocking dose IC50, ACh-gated current, oocyte voltage clamp (human α7 nAChR (human))","Half-blocking dose IC50, ACh-gated current, oocyte voltage clamp (rat α4β2 nAChR (rat))","Half-blocking dose IC50, NMDA receptor current, oocyte voltage clamp [5]"
"αO-conotoxin GeXIVA14 (GeXIVA mature peptide isomer with disulfide bonds I-IV, II-III)",7400 nM,197 nM,1740 nM,> 10000 nM,611 nM,> 10000 nM,865 nM,200 nM,
"αO-conotoxin GeXIVA13 (GeXIVA mature peptide isomer with disulfide bonds I-III, II-IV)",> 10000 nM,141 nM,4960 nM,> 10000 nM,483 nM,> 10000 nM,3300 nM,,> 10000 nM and 17000 nM
